Laboratory results: paper PMC6384963, “The β-N-Acetylhexosaminidase in the Synthesis of Bioactive Glycans: Protein and Reaction Engineering” (Molecules, 2019)
Where a chain is given by its changes, count along the chain named. Names may count otherwise.

B1: TfHex (β-N-acetylhexosaminidase from Talaromyces flavus) (Talaromyces flavus; Y470N) (protein)
chain: VAVNPLPAPRSITWGTSGPISVPHNVDVKLPKNAIINDAWERAWTSIKQLRWVPQATEAPISSYEPFPTVAPTSASTASSTPLPSSSAAAVAARSQKRGHQKGSHEKRGHSQSTLRTVTVTVSDLNADLQAEVDESYTLVLDSGSSTLAITANTTWGALHAFTTLQQLVIYQDNSLIIEQPVHIEDSPLYPWRGVMIDTGRNFITVPKIKEQIDGMALSKLNILHWHLDDSQSWPVHMDTYPQMTNDAYSPWQTYSHEDIKDIIEYARARAVRVVPEVDMPGHSAAGWQQVDPSIVACAHSWWSNDNWPYHTAVEPTPGQLDPLNNKTYGVVEKVYNELSGIFTDDFFHVGGDELQTGCYNFSTYVSDYLAADPSRTYNDVTQYWVDHAFPIFKKIQNRKLVIWEDLIINNPHAPNVSTENLLVQSWNNGLTNINNLTNLGYDVLVSSSDFMNLDCGYGGFVTNDPRYDVMVNPDAVDGLANFNWGGNGGSWCAPYKTWQRIYDYDFTTNLTDAQAAHVKGAVAPLWSEQVDDTVISGKMWPRAAALAELVWSGNKDPKTGDKRTTYMTQRILNFREYLVANGVQAAPLVPKYCLQHPHSCDLYYDQTAVV
notes: secreted from Pichia pastoris KM71H, pPICZαA vector; purified by cation-exchange chromatography
B2: TfHex (β-N-acetylhexosaminidase from Talaromyces flavus) (Talaromyces flavus) (protein)
chain: B1 chain with N453Y
notes: as for B1
B3: TfHex (β-N-acetylhexosaminidase from Talaromyces flavus) (Talaromyces flavus; Y470H) (protein)
chain: B1 chain with N453H
notes: as for B1
B4: TfHex (β-N-acetylhexosaminidase from Talaromyces flavus) (Talaromyces flavus; Y470F) (protein)
chain: B1 chain with N453F
notes: as for B1

Each protein was assayed on CC(=O)N[C@H]1[C@H](Oc2ccc([N+](=O)[O-])cc2)O[C@H](CO)[C@@H](O)[C@@H]1O (assay: purified protein). Conditions: McIlvaine buffer pH 5.0, 25 °C, hydrolysis.
Format: biochemical, Talaromyces flavus
B1 was tested, and the Km was 890 ± 130 µM, the kcat was 11.6 ± 0.6 s⁻¹ and the kcat/Km was 13000 M⁻¹ s⁻¹. B2 showed a Km of 110 ± 20 µM, a kcat of 47 ± 1 s⁻¹ and a kcat/Km of 434000 M⁻¹ s⁻¹. B3 was tested, and the Km was 53 ± 8 µM, the kcat was 0.67 ± 0.02 s⁻¹ and the kcat/Km was 13000 M⁻¹ s⁻¹. B4 was tested, and the Km was 23 ± 8 µM, the kcat was 0.27 ± 0.01 s⁻¹ and the kcat/Km was 12000 M⁻¹ s⁻¹.

The proteins below were run on CC(=O)N[C@H]1[C@H](Oc2ccc([N+](=O)[O-])cc2)O[C@H](CO)[C@H](O)[C@@H]1O (assay: purified protein). Conditions: McIlvaine buffer pH 5.0, 25 °C, hydrolysis.
Format: biochemical, Talaromyces flavus
For B1, the Km was 890 ± 90 µM, the kcat was 0.35 ± 0.01 s⁻¹ and the kcat/Km was 400 M⁻¹ s⁻¹. In the case of B2, the Km is reported as 690 ± 90 µM, the kcat is reported as 104 ± 5 s⁻¹ and the kcat/Km is reported as 150000 M⁻¹ s⁻¹. B3 gave a Km of 350 ± 30 µM, a kcat of 0.188 ± 0.004 s⁻¹ and a kcat/Km of 530 M⁻¹ s⁻¹. B4 gave a Km of 50 ± 5 µM, a kcat of 0.166 ± 0.003 s⁻¹ and a kcat/Km of 3300 M⁻¹ s⁻¹.
